Data published in patent publication US20040081963.

Target: Sso7d-ΔTaq (wild-type fusion) G24W (Sso7d numbering; reverts the mutant fusion to wild type) (Sulfolobus solfataricus? / Thermus aquaticus?) (UniProt P19821)
Conditions: PCR yield ratio primer 57F over 57F5/6, reverse primer 732R, annealing 64 C

Sequence of UniProt P19821 (P19821 whole entry, stated change not applied, the tested form may be a part): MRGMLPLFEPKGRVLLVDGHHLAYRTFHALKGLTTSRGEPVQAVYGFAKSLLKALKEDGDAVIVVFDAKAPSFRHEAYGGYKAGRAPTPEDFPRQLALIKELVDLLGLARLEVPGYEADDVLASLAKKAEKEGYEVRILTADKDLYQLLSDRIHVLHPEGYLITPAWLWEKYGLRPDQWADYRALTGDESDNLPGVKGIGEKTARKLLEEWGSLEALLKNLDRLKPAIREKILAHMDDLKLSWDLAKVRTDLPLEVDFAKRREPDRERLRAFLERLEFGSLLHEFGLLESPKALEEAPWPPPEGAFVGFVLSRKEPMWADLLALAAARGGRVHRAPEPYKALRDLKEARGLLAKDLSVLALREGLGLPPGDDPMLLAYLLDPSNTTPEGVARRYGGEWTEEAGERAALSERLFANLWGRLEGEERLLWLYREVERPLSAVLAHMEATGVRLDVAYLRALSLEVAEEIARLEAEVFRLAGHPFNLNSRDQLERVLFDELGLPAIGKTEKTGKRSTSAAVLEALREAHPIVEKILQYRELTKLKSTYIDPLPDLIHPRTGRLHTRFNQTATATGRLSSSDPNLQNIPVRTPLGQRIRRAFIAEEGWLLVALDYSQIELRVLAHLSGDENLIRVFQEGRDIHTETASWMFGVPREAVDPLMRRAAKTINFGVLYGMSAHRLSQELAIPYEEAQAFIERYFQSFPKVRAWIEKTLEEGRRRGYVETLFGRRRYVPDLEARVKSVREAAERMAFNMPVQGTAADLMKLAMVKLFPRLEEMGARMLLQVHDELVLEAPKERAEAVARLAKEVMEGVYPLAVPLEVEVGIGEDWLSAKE

TCCGCCCTTCTTCGTCATAACT (double strand) [mismatched primer 57F5/6 on lambda DNA]
PCR match/mismatch yield ratio (match/mismatch yield ratio): 0.92
